Measured values as given in US20170166621A1 (Novartis, published 2017).

B1: GLP-1(7-35; A8S)-GSGGGGSGGG-FGF21(33-209; Q56E-D74H-Q82E-R105K-K150R-R154C-40 kDa branched PEG-R159Q-S195A) (ligand)
chain: HSEGTFTSDVSSYLEGQAAKEFIAWLVKGGSGGGGSGGGDSSPLLQFGGQVRQRYLYTDDAQETEAHLEIREDGTVGGAAHQSPESLLELKALKPGVIQILGVKTSRFLCQKPDGALYGSLHFDPEACSFRELLLEDGYNVYQSEAHGLPLHLPGNRSPHCDPAPQGPARFLPLPGLPPALPEPPGILAPQPPDVGSSDPLAMVGPSQGRSPSYAS
modifications: 40 kDa branched PEG on Cys at R154C (FGF21 numbering)
B2: GLP-1(7-35; A8S)-SGGGGSGGG-FGF21(33-194; R154C-40 kDa branched PEG) (ligand)
chain: HSEGTFTSDVSSYLEGQAAKEFIAWLVKGGSGGGGSGGGDSSPLLQFGGQVRQRYLYTDDAQQTEAHLEIREDGTVGGAADQSPESLLQLKALKPGVIQILGVKTSRFLCQRPDGALYGSLHFDPEACSFRELLLEDGYNVYQSEAHGLPLHLPGNKSPHCDPAPRGPARFLPLPGLPPALPEPPGILAPQPPDVGSSDPLS
modifications: 40 kDa branched PEG on Cys at R154C (FGF21 numbering)

Key:
GLP-1 receptor = GLP-1 receptor (UniProt P43220 24-463, limits assumed); assay: cell-based or functional assay
FGF21 receptor = assay: cell-based or functional assay

Binder | cAMP EC50 (fold-Ex-4); GLP-1R only cells (GLP-1 receptor) | cAMP EC50 (fold-Ex-4); GLP-1R/FGFR1c/beta-klotho cells (GLP-1 receptor) | cAMP EC50 (nM); GLP-1R only cells (GLP-1 receptor) | cAMP EC50 (nM); GLP-1R/FGFR1c/beta-klotho cells (GLP-1 receptor) | cAMP EC50 (fold-Ex-4); GLP-1R only cells; V253 + V76 co-treatment (GLP-1 receptor) | cAMP EC50 (fold-Ex-4); GLP-1R/FGFR1c/beta-klotho cells; V253 + V76 co-treatment (GLP-1 receptor) | cAMP EC50 (nM); GLP-1R only cells; V253 + V76 co-treatment (GLP-1 receptor) | cAMP EC50 (nM); GLP-1R/FGFR1c/beta-klotho cells; V253 + V76 co-treatment (GLP-1 receptor) | potency in the FGF21 receptor assay (FGF21 receptor)
B1 | 6 fold | 0.4 fold | 64 nM | 2.4 nM |  |  |  |  | 
B2 | 3.2 fold | 4.1 fold | 34 nM | 24 nM | 3.5 fold | 2.1 fold | 38 nM | 12 nM | ≥ 1000 fold less potent
